US20230201361

Key:
[1] = biological target: control peptide, an HES-bearing peptide of the same length, with the same labeling, that does not contain the conformation-dependent cleavage site
[2] = biological target: eighteen amino acid peptide containing the amino acid sequence PLGIA, covalently labeled with the same fluorophore near each end (HES structure)

B1: MMP-19 (protein)
chain: YLLLGRWRKKHLTFRILNLPSTLPPHTARAALRQAFQDWSNVAPLTFQEVQAGAADIRLSFHGRQSSYCSNTFDGPGRVLAHADIPELGSVHFDEDEFWTEGTYRGVNLRIIAAHEVGHALGLGHSRYSQALMAPVYEGYRPHFKLHPDDVAGIQALYGKKSPVIRDEEEEETELPTVPPVPTEPSPMPDPCSSELDAMMLGPRGKTYAFKGDYVWTVSDSGPGPLFRVSALWEGLPGNLDAAVYSPRTQWIHFFKGDKVWRYINFKMSPGFPKKLNRVEPNLDAALYWPLNQKVFLFKGSGYWQWDELARTDFSSYPKPIKGLFTGVPNQPSAAMSWQDGRVYFFKGKVYWRLNQQLRVEKGYPRNISHNWMHCRPRTIDTTPSGGNTTPSGTGITLDTTLSATETTFEY
With B1 the fluorescence intensity [1] was “The fluorescence of the latter does not increase upon addition of the MMP” and the fluorescence intensity [2] was “Cleavage of the peptide gives rise to an increase in fluorescence intensity”.
